# B1: Wnt3a: recombinant Wnt3a protein, canonical Wnt, used at 150 ng/ml (protein, UniProt P56704 19-352, looked up)
# Protein Wnt-3a: SYPIWWSLAVGPQYSSLGSQPILCASIPGLVPKQLRFCRNYVEIMPSVAEGIKIGIQECQHQFRGRRWNCTTVHDSLAIFGPVLDKATRESAFVHAIASAGVAFAVTRSCAEGTAAICGCSSRHQGSPGKGWKWGGCSEDIEFGGMVSREFADARENRPDARSAMNRHNNEAGRQAIASHMHLKCKCHGLSGSCEVKTCWWSQPDFRAIGDFLKDKYDSASEMVVEKHRESRGWVETLRPRYTYFKVPTERDLVYYEASPNFCEPNPETGSFGTRDRTCNVSSHGIDGCDLLCCGRGHNARAERRREKCRCVFHWCCYVSCQECTRVYDVHTCK
# Tested on: unfractionated BMMNCs
# Test: Assessment of cardiac differentiation by immunocytochemistry (cMyHC, cTnT)
# Type: cell-based, mice
# Details: 21 days of culture
# From the text: Induction of differentiation. To assess the influence of ectopic expression of Wnt11 on BMMNC differentiation, Wnt11 conditioned medium (Wnt11-CM) was generated. Specifically, unfractionated BMMNCs were co-cultured with Wnt11-expressing HEK-293 cells (Wnt11/293-2; designated as Wnt11-CM), under the same conditions used to culture BMMNCs. In order to achieve strict separation of cell types during co-culture experiments, BMMNC and Wnt11/293 cells were separated into upper and lower chambers of a TRANSWELL® co-culture system. Wnt11/293-2 or pcDNA3/293 (empty vector) cells (the controls in this experiment) were cultured in the upper chamber on the polyester (PET) membrane of a 24 mm TRANSWELL® insert, and unfractionated BMMNCs were cultured in the lower chamber as described above.
# Moreover, to eliminate the possibility of cell fusion or cell-cell contact as a requirement for Wnt11-mediated effects, a membrane pore size of 0.4 μm was chosen, thus preventing egression of Wnt11/293-2 cells to the lower compartment that contained BMMNCs. Of note, TRANSWELL® inserts were maintained separately without cells until day 10 of BMMNC attachment. […]
# Assessment of cardiac differentiation. For quantitative assessment of cardiomyocytic differentiation, an average of 2400 cells/plate were counted. Multiple fields from all 4 quarters of the plate were systematically evaluated. […]
molecule,measurement,value
B1,"expression of cardiac-specific contractile proteins (cTnT, cMyHC)",not observed

# Source: patent publication US20110052551A1, “CARDIAC MYOCYTE MORPHOGENIC COMPOSITIONS AND METHODS OF USE THEREFOR” (priority 2008, published 2011)
